Key:
[1] = biological target: the molecule itself; experiment: cross-linking; purified CAC reconstituted in liposomes (0.5 µg protein), 0.5 mM Sulfo-MBS (spacer arm 9.9 Å), 30 min at room temperature, quenched with 10 mM DTE and 20 mM Tris-HCl pH 8.0; SDS-PAGE and immunoblot
[2] = biological target: the molecule itself; experiment: native gel or EMSA; Sarkosyl/PAGE: 14% polyacrylamide, 0.05% w/v Sarkosyl in gel, samples and running buffer, 100 Volt, 4 °C; purified CAC in Triton X-100 or extracted from proteoliposomes with 0.05% Sarkosyl; silver nitrate staining; 59 kDa band excised and run on SDS-PAGE with immunoblot
[3] = biological target: the molecule itself; experiment: cross-linking; recombinant CAC WT alone (100) or mixed with C-lessV (75/25, 50/50) reconstituted in liposomes, incubated with Sulfo-SMPB; SDS-PAGE and immunoblot

Row | Protein | stoichiometry N [1] | stoichiometry N [2] | stoichiometry N [3]
1 | native carnitine/acylcarnitine carrier purified from isolated rat liver mitochondria (natural protein, UniProt P97521 1-301, looked up, mitochondrial carnitine/acylcarnitine carrier (CAC, SLC25A20), rat, native protein from liver mitochondria; single band of apparent molecular weight 32,500 Da on SDS gel; Integral membrane protein; also called CAC; SLC25A20; source: purified from rat liver mitoplasts (3% Triton X-100 extract, hydroxyapatite, celite with cardiolipin); used in Triton X-100 or reconstituted in liposomes) MAEEPKPISPLKNLLAGGFGGVCLVFVGHPLDTVKVRLQTQPPSLPGQPPMYSGTIDCFRKTLFREGITGLYRGMAAPIIGVTPMFAVCFFGFGLGKRLQQKSPEDELTYPQLFTAGMLSGVFTTGIMTPGERIKCLLQIQASSGKNKYSGTLDCAKKLYQEFGIRGFYKGTALTLMRDVPASGMYFMTYEWLKNLFTPQGKSVHDLSVPRVLVAGGFRGIFNWVVAIPPDVLKSRFQTAPPGKYPNGFRDVLRELIREEGVTSLYKGFNAVMIRAFPANAACFLGFEIPMKILNWIAPNL | 2 | ~2 | –
2 | recombinant carnitine/acylcarnitine carrier wild type (natural protein, UniProt P97521 1-301, looked up, also called CAC WT; WT; source: overexpressed from cDNA cloned in pMW7, purified, reconstituted in liposomes) MAEEPKPISPLKNLLAGGFGGVCLVFVGHPLDTVKVRLQTQPPSLPGQPPMYSGTIDCFRKTLFREGITGLYRGMAAPIIGVTPMFAVCFFGFGLGKRLQQKSPEDELTYPQLFTAGMLSGVFTTGIMTPGERIKCLLQIQASSGKNKYSGTLDCAKKLYQEFGIRGFYKGTALTLMRDVPASGMYFMTYEWLKNLFTPQGKSVHDLSVPRVLVAGGFRGIFNWVVAIPPDVLKSRFQTAPPGKYPNGFRDVLRELIREEGVTSLYKGFNAVMIRAFPANAACFLGFEIPMKILNWIAPNL | – | – | 2

Reference: PMC11430254, “Insights into Transient Dimerisation of Carnitine/Acylcarnitine Carrier (SLC25A20) from Sarkosyl/PAGE, Cross-Linking Reagents, and Comparative Modelling Analysis” (Biomolecules, 2024)
